In US20170198014A1, “POLYPEPTIDES AND THEIR USE FOR TREATING INFLUENZA” ([…] ITS CENTER FOR COMMERCIALIZATION, priority 2014, published 2017):

Key:
[1] = target: HA of H3N2 A/Hong Kong/1/1968 (Influenza A virus, UniProt Q91MA7)
[2] = stability after loop truncation and trimerization; settings: trimerized, truncation of 3 residues after position 43
[3] = target: H1 (A/NewCaledonia/20/1999) (Influenza A virus, UniProt Q6WG00); settings: read-out: affinity constant via yeast surface display

B1: GIVNVPNPNTTKYQQLARTAVAIYNYHEQAHLCFVENLNVKEQGNYYYITLAACDDAGKKAIYEAKIGVVESAGWTGVEEFKLV (protein)
chain: GIVNVPNPNTTKYQQLARTAVAIYNYHEQAHLCFVENLNVKEQGNYYYITLAACDDAGKKAIYEAKIGVVESAGWTGVEEFKLV
Question: What does the source list for B1?
Answer: binding when trimerized [1]: binds extremely tightly; stability [2]: stability is improved

B2: GIVNVPNCNTTKYQQLARTAVAIYNYHEQAHLTFVENLNCKEQGNYYYITLAATDDAGKKAIYEAKIGVVESAGWTGVEEFKLV (protein)
chain: GIVNVPNCNTTKYQQLARTAVAIYNYHEQAHLTFVENLNCKEQGNYYYITLAATDDAGKKAIYEAKIGVVESAGWTGVEEFKLV
Question: With B2 as the molecule, how does the binding when trimerized [1] read?
Answer: binds extremely tightly

Question: What about the stability [2] of the same molecule?
Answer: stability is improved

B3: ASGMLAISMDTDKISNSFEDCKYFLIELKSAGWTNTIFNDESGKEEIVKMGVDAIICKNISEENYKKFSKKIEIYHAEGDDVNKNISLFLEGELSKISNP (protein)
chain: ASGMLAISMDTDKISNSFEDCKYFLIELKSAGWTNTIFNDESGKEEIVKMGVDAIICKNISEENYKKFSKKIEIYHAEGDDVNKNISLFLEGELSKISNP
Question: Which Kd [3] does the source give for B3 here?
Answer: 23.2 nM
